The values below come from paper PMC12135372, “Structural and biochemical characterization of the 3′-5′ tRNA splicing ligases”.

Positions count from the first letter of the chain named.

Common to all, as to assay: disulfide (cystamine) crosslinking, SDS-PAGE; 2.5 mM MnCl2; MST: 25 mM Hepes pH 7.5, 150 mM NaCl, 1 mM DTT, with or without 2 mM GTP and 2 mM MnCl2, 20 nM Cy5-tRNA, temperature not stated; crosslinking: 50 mM Tris pH 7.5, 25 mM NaCl, 25 mM KCl, 30% glycerol, 2.5 mM MnCl2, 0-1 mM DTT, 37 C 2 h then 24 C 14 h
Holding throughout (details): protein: recombinant; tags: His6-SUMO removed; single strand

One data set has as its target T1, Tb-RtcB R237C (Thermococcus barophilus, UniProt F0LKB8 1-479, R237C).
T1 sequence: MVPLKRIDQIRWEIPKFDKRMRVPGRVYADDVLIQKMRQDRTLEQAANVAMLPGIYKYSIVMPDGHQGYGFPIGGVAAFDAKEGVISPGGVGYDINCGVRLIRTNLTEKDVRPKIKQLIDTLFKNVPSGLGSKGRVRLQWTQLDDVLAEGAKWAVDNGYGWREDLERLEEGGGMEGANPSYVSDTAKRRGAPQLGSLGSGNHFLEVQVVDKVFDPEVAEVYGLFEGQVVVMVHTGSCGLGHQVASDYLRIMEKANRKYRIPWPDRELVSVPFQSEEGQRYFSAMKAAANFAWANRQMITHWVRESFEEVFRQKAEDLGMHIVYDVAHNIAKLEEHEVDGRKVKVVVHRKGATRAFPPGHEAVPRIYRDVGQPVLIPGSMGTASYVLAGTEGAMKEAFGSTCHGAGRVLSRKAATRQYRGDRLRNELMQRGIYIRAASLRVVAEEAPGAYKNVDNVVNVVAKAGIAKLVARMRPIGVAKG

A further data set addresses T2, Tb-RtcB S199C (Thermococcus barophilus, UniProt F0LKB8 1-479, S199C).
T2 sequence: T1 sequence with S199C, C237R

Another data set addresses T3, Tb-RtcB L130C (Thermococcus barophilus, UniProt F0LKB8 1-479, L130C).
T3 sequence: T1 sequence with L130C, C237R

AAACACCGGUGGAGG (ssRNA, cystamine on phosphate between nt 1 and 2; 2'-F at nt 1; 3'-phosphate) [RNA-2]: the binding result in the data set with Tb-RtcB R237C is on record as “binds”.
On to AAACACCGGUGGAGG (ssRNA, cystamine on phosphate between nt 2 and 3; 2'-F at nt 2; 3'-phosphate) [RNA-1], for which the binding result with Tb-RtcB R237C, with Tb-RtcB S199C and with Tb-RtcB L130C was “binds” each time.
